{"source": "patent US20220387457A1", "substrate": "CC1(C)Oc2ccc(C#N)cc2[C@@H](N2CCCC2=O)[C@@H]1OP(=O)(O)O", "assay": "purified protein, by the assay type", "format": "biochemical, human", "settings": "other: ALP 0.02 U/100 μL, pH 10, 37.0 °C", "procedure": "To activate CKLP1, the phosphate is hydrolyzed from phosphatases to produce leveromakalim, the active moiety that can open (activate) ATP-sensitive potassium channels.\nIn the first experiment, a fixed concentration of CKLP1 solution was incubated with varying concentrations of placenta-derived human alkaline phosphatase. To accomplish this, placenta-derived human alkaline phosphatase (0.0002 U) in a 100-μL volume was added to each of thirteen 1.5-mL tubes. To each tube, CKLP1 was then added at a fixed concentration [10 mM (0.4%)]. Tubes were inverted twice and incubated in a water bath at 37° C. At each of 13 different time points (0, 1, 2.5, 5, 15, and 30 minutes and at 1, 2, 4, 8, 24, 48, and 72 hours), a single tube was removed, and the reaction was stopped by the addition of 2 volumes (200 μL) of acetonitrile. Samples were stored at −80° C. The experiment was repeated with 10 mM CKLP1 (0.4%) in the presence of placenta-derived human alkaline phosphatase at concentrations of 0.002 U, 0.02 U, and 0.2 U. All assays were performed at pH 10.\nIn a second experiment, a fixed concentration of placenta-derived human alkaline phosphatase was incubated with varying concentrations of CKLP1. To accomplish this, a fixed concentration of 0.02 U of placenta-derived human alkaline phosphatase in a 100-μL volume was added to each of thirteen 1.5-mL tubes. […]"}
{"protein": "placenta-derived human alkaline phosphatase (Homo sapiens) (protein, varying concentrations of placenta-derived human alkaline phosphatase; from tissue; host or cells: human placenta) IIPVEEENPDFWNREAAEALGAAKKLQPAQTAAKNLIIFLGDGMGVSTVTAARILKGQKKDKLGPEIPLAMDRFPYVALSKTYNVDKHVPDSGATATAYLCGVKGNFQTIGLSAAARFNQCNTTRGNEVISVMNRAKKAGKSVGVVTTTRVQHASPAGTYAHTVNRNWYSDADVPASARQEGCQDIATQLISNMDIDVILGGGRKYMFRMGTPDPEYPDDYSQGGTRLDGKNLVQEWLAKRQGARYVWNRTELMQASLDPSVTHLMGLFEPGDMKYEIHRDSTLDPSLMEMTEAALRLLSRNPRGFFLFVEGGRIDHGHHESRAYRALTETIMFDDAIERAGQLTSEEDTLSLVTADHSHVFSFGGYPLRGSSIFGLAPGKARDRKAYTVLLYGNGPGYVLKDGARPDVTESESGSPEYRQQSAVPLDEETHAGEDVAVFARGPQAHLVHGVQEQTFIAHVMAFAACLEPYTACDLAPPAGTTD", "values": [{"measurement": "Km", "result": 399, "unit": "µM"}]}
